Columns and labels:
[1] = tested on: T47D-MUC1* breast cancer tumors; assay: Breast cancer xenograft, IVIS bioluminescence; assay type: in vivo, NOD/SCID/GAMMA (NSG) mice; conditions: from Day 6, 10 mg/kg, DAR 4.2
Procedure: (§1) FIGS. 57A-57F show bioluminescence photographs of female NOD/SCID/GAMMA (NSG) mice, implanted with 90-day estrogen pellets and then implanted on the right flank with 1M human breast cancer cells that were either T47D wild-type cells that express low to medium levels of MUC1* or T47D-MUC1* cells that had been engineered to express more MUC1*. Day 7 post tumor implantation, the animals were injected with MNC2-MMAE, DAR 3.9, at 5 mg/kg, but was increased to 10 mg/kg for the Day 14 and Day 20 injections.
(§2) FIGS. 58A-58F show bioluminescence photographs of female NOD/SCID/GAMMA (NSG) mice, implanted with 90-day estrogen pellets and then implanted on the right flank with 1M human breast cancer cells that were either T47D wild-type cells that express low to medium levels of MUC1* or T47D-MUC1* cells that had been engineered to express more MUC1*. Day 7 post tumor implantation, the animals were injected with MN20A10-MMAE, DAR 3.0, at 5 mg/kg, but was increased to 10 mg/kg for the Day 14 and Day 20 injections.
(§3) FIGS. 63A-63H show bioluminescence photographs of female NOD/SCID/GAMMA (NSG) mice, implanted with 90-day estrogen pellets and then implanted on the right flank with 1M human breast cancer cells that were either T47D wild-type cells that express low to medium levels of MUC1* or T47D-MUC1* cells that had been engineered to express more MUC1*. […]

[2] = tested on: T47D-wt breast cancer tumors; assay: Breast cancer xenograft, IVIS bioluminescence; assay type: in vivo, NOD/SCID/GAMMA (NSG) mice; conditions: from Day 6, 10 mg/kg increased to 20 mg/kg, DAR 4.2
Procedure: as §1, §2, §3

B1: MNC2-Deruxtecan (conjugate)
VH: EVQLVESGGGLVKPGGSLRLSCAASGFTFSGYAMSWVRQAPGKGLEWVSTISSGGTYIYYPDSVKGRFTISRDNAKNSLYLQMNSLRAEDTAVYYCARLGGDNYYEYFDVWGKGTTVTVSS
VL: DIVLTQSPASLAVSPGQRATITCRASKSVSTSGYSYMHWYQQKPGQPPKLLIYLASNLESGVPARFSGSGSGTDFTLTINPVEANDTANYYCQHSRELPFTFGGGTKVEIKRT
- tumor burden (bioluminescence) [1]: essentially eliminated by Day 26
- tumor burden (bioluminescence) [2]: greatly reduced compared to the controls

— patent publication US12491259B2, “Anti-variable MUC1* antibodies and uses thereof” (Minerva Biotechnologies Corporation, priority 2022, dated 2025)
